Laboratory results published in patent US20070042954A1.
Where two headings read alike, the source gives them in different places. Where no end group is shown, it is not given here.

Tests used:
Test in all cases: radioreceptor assay, displacement of [125I-DTyr0]-astressin from purified sCRFR2α
[1] = target: bact sCRFR2α (mouse soluble CRF receptor type 2α, amino acids 20-143, purified from E. coli) (mouse)
[2] = target: mam sCRFR2α (mouse soluble CRF receptor type 2α, amino acids 1-143 with a FLAG epitope following amino acid 143, purified from COS M6 cell media) (mouse)
[3] = target: T1, mam sCRFR2α (mouse soluble CRF receptor type 2α, amino acids 1-143 with a FLAG epitope following amino acid 143, purified from COS M6 cell media) (mouse)
T1 chain: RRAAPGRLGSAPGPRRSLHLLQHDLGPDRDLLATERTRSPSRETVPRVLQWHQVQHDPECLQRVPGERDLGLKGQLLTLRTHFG

Row | Binder | Ki [1] | Ki [2] | Ki [3]
1 | SEEPPISLDLTFHLLREVLEMARAEQLAQQAHSNRKLMEII (ends and bridges not checked) [corticotropin releasing factor (CRF)] | 14.8 nM | 23 nM | 
2 | FHLLREVLEMARAEQLAQEAHKNRKLMEII (modifications not checked) [Astressin] |  |  | 6.7 nM
3 | DDPPLSIDLTFHLLRTLLELARTQSQRERAEQNRIIFDSV (peptide, UniProt P55090 81-120, looked up) [rUcn1 (urocortin 1)] | 5.8 nM | 6.6 nM | 
4 | VILSLDVPIGLLRILLEQARYKAARNQAATNAQILAHV (peptide, UniProt Q99ML8 73-110, looked up) [mUcn2 (urocortin 2)] | 116 nM | 113 nM | 
